# Target: BosR (Borrelia burgdorferi B31, UniProt O51592 1-176)
# Test: EMSA; 400 nM BosR, 1 nM probe, 50 ug/ml salmon sperm DNA
# Details: protein: recombinant; tags: C-terminal His6 (pET-23a); chain copies: 2; label: 5' digoxigenin on one strand
row,Binder,binding result
1,cisI probe (dsDNA) DNA 1: TAATTAGAACCAAACTTAATTAAAACCAAACTTAATTGAAGTTATTATCATTTTATTTTTTTTCAATTTT DNA 2: AAAATTGAAAAAAAATAAAATGATAATAACTTCAATTAAGTTTGGTTTTAATTAAGTTTGGTTCTAATTA,binds
2,cisII probe (dsDNA) DNA 1: TGTTATTTGTTAATCTTATAATATAATTATACTTGTATTAAGTTATATTAATATAAAAGGAGAATATATT DNA 2: AATATATTCTCCTTTTATATTAATATAACTTAATACAAGTATAATTATATTATAAGATTAACAAATAACA,binds
3,IRs probe (ospC operator) (dsDNA) DNA 1: CAATATTTTTCAAATTCTTCAATATTTATTCAAGATATTGAAGAATTTGAAAAAATTATTTTTTCAAATA DNA 2: TATTTGAAAAAATAATTTTTTCAAATTCTTCAATATCTTGAATAAATATTGAAGAATTTGAAAAATATTG,no binding

# From publication PMC4182837, “BosR Functions as a Repressor of the ospAB Operon in Borrelia burgdorferi”
